Two substances from PMC9340783 can be followed below.

pEC50, pKd: −log10 of the molar value.

The target in assay [1] is hGITR ECD hFc (human) (UniProt Q9Y5U5). The assay can be described thus: ELISA; indirect ELISA; antigen hFc fusion protein coated on 96-well plates (1 μg·mL^−1 overnight at 4 °C in Fig. 3B), antibody added, detected with anti-rat IgG/hIgG-peroxidase antibody. (In an ELISA, binding on a coated surface is turned into a signal by an enzyme label.)
Assay [2] deals with cynoGITR ECD hFc (cynomolgus). The assay is described as above.
The target of assay [3] is hGITR ECD hFc (human) (UniProt Q9Y5U5). Put plainly: SPR; Biacore T200; hGITR ECD hFc immobilised on a Series S CM5 chip; antibody 0, 3.125, 6.25, 12.5, 25 and 50 nM; association 180 s, dissociation 600 s. In general terms: In SPR one partner is held on a chip, and binding of the other changes the refractive index at the surface.
For assay [4], the target named is human GITR on 293F‐hGITR cells (human) (UniProt Q9Y5U5).
Chain of human GITR on 293F‐hGITR cells (human) (Q9Y5U5 26-241): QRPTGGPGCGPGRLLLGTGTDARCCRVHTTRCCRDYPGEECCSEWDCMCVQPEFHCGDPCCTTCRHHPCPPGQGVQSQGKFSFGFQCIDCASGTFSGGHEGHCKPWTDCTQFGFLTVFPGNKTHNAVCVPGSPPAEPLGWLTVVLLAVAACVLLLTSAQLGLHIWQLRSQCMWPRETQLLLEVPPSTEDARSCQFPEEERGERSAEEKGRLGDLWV
Assay [5] deals with cynoGITR on 293F‐cynoGITR cells (cynomolgus). The assay can be described thus: flow cytometry on cells; 293F‐hGITR or 293F‐cynoGITR cells incubated with antibodies at 4 °C for 1 h, fluorescent anti-rat/human secondary antibody; EC50 of MFI curve.
Assay [6] addresses human GITR on 293F‐hGITR cells (human) (UniProt Q9Y5U5). The description is as above.
Assay [7] deals with hGITR ECD hFc (human) (UniProt Q9Y5U5). Put plainly: SPR.

Chain of hGITR ECD hFc (human) (Q9Y5U5 other isoform, or with tags, fused parts or gaps): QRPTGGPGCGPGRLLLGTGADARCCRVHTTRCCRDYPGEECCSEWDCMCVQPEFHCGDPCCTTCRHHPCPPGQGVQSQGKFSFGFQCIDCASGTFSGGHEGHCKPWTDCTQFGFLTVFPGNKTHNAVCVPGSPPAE

In the case of Tab6C8 (antibody), the pEC50 (in general, the negative decadic logarithm of the EC50, by convention in mol/L) in assay [1] is 9.02. The substance further showed a pEC50 in assay [2] of 8.95. The negative logarithm of the Kd (pKd) (in general, −log10 of the Kd, conventionally taken in molar units) in assay [3] was 8.42. In addition, in assay [4], the NF‐ĸB luciferase reporter assay, Crosslinking, EC50 is 0.336 nM; the NF‐ĸB luciferase reporter assay, Crosslinking, Top ratio was determined as 32 fold; the NF‐ĸB luciferase reporter assay, No crosslinking, EC50 came out at 0.829 nM; the NF‐ĸB luciferase reporter assay, No crosslinking, Top ratio was found to be 14 fold. For the same substance, in assay [4], the T‐cell activation (IFN‐γ secretion), Donor#1, EC50 came to 0.0106 nM; the T‐cell activation (IFN‐γ secretion), Donor#2, EC50 was 0.00559 nM; the T‐cell activation (IFN‐γ secretion), Donor#3, EC50 was 0.00681 nM. In assay [5], this substance had a pEC50 of 11.15. The substance also had a pEC50 in assay [6] of 10.57.
Regarding Tab6C8, the koff (usually a measure of how fast the partners let go of each other) in assay [7] was 0.0044 s⁻¹.
